Experiment in all cases: SPR
A general note: Surface plasmon resonance follows binding to a sensor surface in real time, without labels.

Assay [1] has as its target T1, FcgRIIa H (human, UniProt P12318).
T1 chain: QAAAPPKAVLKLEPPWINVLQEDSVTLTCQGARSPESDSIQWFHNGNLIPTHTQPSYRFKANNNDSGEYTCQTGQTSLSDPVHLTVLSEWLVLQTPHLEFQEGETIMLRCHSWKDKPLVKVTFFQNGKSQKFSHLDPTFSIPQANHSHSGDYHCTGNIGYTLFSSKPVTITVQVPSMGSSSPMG

For assay [2], the target named is T2, FcgRIIIa V (human, UniProt P08637).
Assay [3] concerns the target T3, FcgRIIb (human, UniProt P31994).
T3 chain: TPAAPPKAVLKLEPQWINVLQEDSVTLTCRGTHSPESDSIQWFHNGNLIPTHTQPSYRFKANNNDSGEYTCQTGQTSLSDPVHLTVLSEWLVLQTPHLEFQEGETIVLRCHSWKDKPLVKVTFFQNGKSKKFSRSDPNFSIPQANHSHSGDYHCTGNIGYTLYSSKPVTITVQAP

For assay [4], the target named is T2, FcgRIIIa V. This is another data set of the same source.
Assay [5] deals with T4, FcgRIIa R (human, UniProt P12318).
T4 chain: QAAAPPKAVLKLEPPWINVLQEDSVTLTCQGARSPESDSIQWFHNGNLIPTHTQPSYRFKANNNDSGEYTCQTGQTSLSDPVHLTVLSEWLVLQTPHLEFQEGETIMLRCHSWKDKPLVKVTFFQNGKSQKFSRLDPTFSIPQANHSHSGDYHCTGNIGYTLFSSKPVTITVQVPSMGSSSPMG

In assay [6] the target is T5, FcgRIa (human, UniProt P12314).
T5 chain: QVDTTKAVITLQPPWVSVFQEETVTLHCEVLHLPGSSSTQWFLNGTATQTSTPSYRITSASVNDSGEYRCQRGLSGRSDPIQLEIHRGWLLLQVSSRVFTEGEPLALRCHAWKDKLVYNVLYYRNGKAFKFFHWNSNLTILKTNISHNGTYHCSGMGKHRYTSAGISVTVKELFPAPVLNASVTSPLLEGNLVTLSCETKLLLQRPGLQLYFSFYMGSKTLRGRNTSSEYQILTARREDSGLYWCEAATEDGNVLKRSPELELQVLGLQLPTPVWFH

The target in assay [7] is T6, FcgRIIIa F (human, UniProt P08637).
T6 sequence (P08637 17-208): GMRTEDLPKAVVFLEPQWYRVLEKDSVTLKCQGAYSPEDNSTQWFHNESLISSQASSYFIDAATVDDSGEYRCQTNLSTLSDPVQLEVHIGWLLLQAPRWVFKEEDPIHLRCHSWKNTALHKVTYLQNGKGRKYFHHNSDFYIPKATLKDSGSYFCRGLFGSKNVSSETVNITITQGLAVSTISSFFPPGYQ
Assay [8] addresses T2, FcgRIIIa V. The source holds these as a separate data set.
For assay [9], the target named is T1, FcgRIIa H.
In assay [10] the target is T5, FcgRIa.
In assay [11] the target is T3, FcgRIIb.
In assay [12] the target is T6, FcgRIIIa F. This is another data set of the same source.
Assay [13] addresses T4, FcgRIIa R.

In patent publication US10766960 (dated 2020) one finds Kd data, which are given here for three molecules.

Like-named read-outs stand apart in the source and are kept apart here.

In general, Kd refers to the equilibrium constant for the complex coming apart. Read a low Kd as a tighter complex.

T2 sequence (P08637 17-208 F176V): as the sequence (P08637 17-208) above, with F160V counted along it

B1: IL6R-BP253/IL6R-L (antibody)
chain 1: QVQLQESGPGLVKPSETLSLTCAVSGHSISHDHAWSWVRQPPGEGLEWIGFISYSGITNYNPSLQGRVTISRDNSKNTLYLQMNSLRAEDTAVYYCARSLARTTAMDYWGEGTLVTVSSASTKGPSVFPLAPSSKSTSGGTAALGCLVKDYFPEPVTVSWNSGALTSGVHTFPAVLQSSGLYSLSSVVTVPSSSLGTQTYICNVNHKPSNTKVDKKVEPKSCDKTHTCPPCPAPELLGGPSVFLFPPKPKDTLMISRTPEVTCVVVDVEHEDPEVKFNWYVDGVEVHNAKTKPREEQYNSTYRVVSVLTVLHQDWLNGKEYKCKVSNKAFPAPIEKTISKAKGQPREPQVYTLPPSRDELTKNQVSLTCLVKGFYPSDIAVEWESNGQPENNYKTTPPVLDSDGSFFLYSKLTVDKSRWQQGNVFSCSVMHEALHNHYTQESLSLSP
chain 2: not shown
Turning to B1, the Kd in assay [1] stood at 860 nM; in assay [2], 400 nM; in assay [3], 8.9 nM; in assay [4], 7100 nM; in assay [5], 2.3 nM; in [6], 0.05 nM.

B2: GpH7-A53/GpH7-B78/GpL16-k0 (antibody)
chain 1: QVQLVQSGAEVKKPGASVTVSCKASGYTFTDYEMHWIRQPPGEGLEWIGAIDPKTGDTAYSESFQDRVTLTADKSTSTAYMELSSLTSEDTAVYYCTRFYSYTYWGQGTLVTVSSASTKGPSVFPLAPSSKSTSGGTAALGCLVKDYFPEPVTVSWNSGALTSGVHTFPAVLQSSGLYSLSSVVTVPSSSLGTQTYICNVNHKPSNTKVDKKVEPKSCDKTHTCPPCPAPELLGGPDVFLFPPKPKDTLMISRTPEVTCVVVDVSHEDPEVKFNWYVDGVEVHNAKTKPREEQYNSTYRVVSVLTVLHQDWLNGKEYKCKVSNKALPAPIEKTISKAKGQPREPQVYTLPPSRKELTKNQVSLTCLVKGFYPSDIAVEWESNGQPENNYKTTPPVLDSDGSFFLYSKLTVDKSRWQQGNVFSCSVMHEALHNRYTQKSLSLSP
chain 2: QVQLVQSGAEVKKPGASVTVSCKASGYTFTDYEMHWIRQPPGEGLEWIGAIDPKTGDTAYSESFQDRVTLTADKSTSTAYMELSSLTSEDTAVYYCTRFYSYTYWGQGTLVTVSSASTKGPSVFPLAPSSKSTSGGTAALGCLVKDYFPEPVTVSWNSGALTSGVHTFPAVLQSSGLYSLSSVVTVPSSSLGTQTYICNVNHKPSNTKVDKKVEPKSCDKTHTCPPCPAPELLGGPDVFLFPPKPKDTLMISRTPEVTCVVVDVSHEDPEVKFNWYVDGVEVHNAKTKPREEQYNSTYRVVSVLTVLHQDWLNGKEYKCKVSNKALPLPEEKTISKAKGQPREPQVYTLPPSRDELTKNQVSLTCLVKGFYPSDIAVEWESNGQPENNYKTTPPVLDSDGSFFLYSKLTVDKSRWQQGNVFSCSVMHEALHNHYTQESLSLSP
chain 3: DIVMTQSPLSLPVTPGEPASISCQASESLVHSNRNTYLHWYLQKPGQSPQLLIYKVSNRFSGVPDRFSGSGSGTDFTLKISRVEAEDVGVYYCSQNTHVPPTFGQGTKVEIERTVAAPSVFIFPPSDEQLKSGTASVVCLLNNFYPREAKVQWKVDNALQSGNSQESVTEQDSKDSTYSLSSTLTLSKADYEKHKVYACEVTHQGLSSPVTKSFNRGEC
Consider B2, for which, in [7], the Kd was 11 nM.

B3: H240-Kn072/H240-Hl076/L73-k0 (antibody)
chain 1: QDQLVQSGAEVKKPGASVKVSCKASGFNIKDTYIQWVRQAPGQGLEWMGRIDPLRKQTKYREKFEGRVTITADTSTNTAYMELSSLRSEDTAVYYCVRSGREFDYWGQGTLVTVSSASTKGPSVFPLAPSSKSTSGGTAALGCLVKDYFPEPVTVSWNSGALTSGVHTFPAVLQSSGLYSLSSVVTVPSSSLGTQTYICNVNHKPSNTKVDKKVEPKSCDKTHTCPPCPAPEYYWGPSVFLFPPKPKDTLMISRTPEVTCVVVDVSDEEPEVKFNWYVDGVEVHNAKTKPREEQYNATYRVVSVLTVLHQDWLNGKEYKCKVSNKALPAPIEKTISKAKGQPREPQVCTLPPSRDELTKNQVSLWCLVKGFYPSDIAVEWESNGQPENNYKTTPPVLDSDGSFFLYSKLTVDKSRWQQGNVFSCSVMHEALHNHYTQKSLSLSP
chain 2: QDQLVQSGAEVKKPGASVKVSCKASGFNIKDTYIQWVRQAPGQGLEWMGRIDPLRKQTKYREKFEGRVTITADTSTNTAYMELSSLRSEDTAVYYCVRSGREFDYWGQGTLVTVSSASTKGPSVFPLAPSSKSTSGGTAALGCLVKDYFPEPVTVSWNSGALTSGVHTFPAVLQSSGLYSLSSVVTVPSSSLGTQTYICNVNHKPSNTKVDKKVEPKSCDKTHTCPPCPAPELLGGPSVFLFPPKPKDTLMISRTPEVTCVVVDVSHEEPEVKFNWYVDGVEVHNAKTKPREEQYNSTYRVVSVLTVLHQDWLNGKEYKCKVSNDALPMPIEETISKAKGQPREPQVYTLPPSRCELTKNQVSLSCAVKGFYPSDIAVEWESNGQPENNYKTTPPVLDSDGSFFLVSKLTVDKSRWQQGNVFSCSVMHEALHNHYTQKSLSLSP
chain 3: DIQMTQSPSSLSASVGDRVTITCRASQDIHKYIAWYQQKPGQAPRLLIQYTSTLQPGVPSRFSGSGSGTDYTFTISSLQPEDIATYYCLQYEQLRTFGGGTKVEIKRTVAAPSVFIFPPSDEQLKSGTASVVCLLNNFYPREAKVQWKVDNALQSGNSQESVTEQDSKDSTYSLSSTLTLSKADYEKHKVYACEVTHQGLSSPVTKSFNRGEC
Consider B3, for which the Kd came to 1 nM in [8]; 130 nM in assay [9]; 0.1 nM in assay [10]; 5700 nM in [11]; 2.6 nM in assay [12]; 710 nM in [13].
